Sequences and labels used below:
B3: AglZ^Rec (domain or fragment, M. xanthus, UniProt Q1D823 2-240, looked up)
chain: ERRVLIVESEHDFALSMATVLKGAGYQTALAETAADAQRELEKRRPDLVVLRAELKDQSGFVLCGNIKKGKWGQNLKVLLLSSESGVDGLAQHRQTPQAADGYLAIPFEMGELAALSHGIVPPGTDDTGASLDAALNGTREAPPPMPPSLKAAAGGPPKLPKRERRSAMTEEDRAFLDRTFQSIADRKAELLAESRQLKRPPPRRELMGTPEGKIQILRDELKTREAQLARLSEIWNVR

Assay in all cases: cross-linking
The series “cross-linking” concerns the molecule itself.
The target in the series “AglZ^Rec” is B3.
The target of series [1] is T1, His-tagged FrzCD full-length protein (M. xanthus, UniProt P43500 1-417).
T1 sequence (looked up): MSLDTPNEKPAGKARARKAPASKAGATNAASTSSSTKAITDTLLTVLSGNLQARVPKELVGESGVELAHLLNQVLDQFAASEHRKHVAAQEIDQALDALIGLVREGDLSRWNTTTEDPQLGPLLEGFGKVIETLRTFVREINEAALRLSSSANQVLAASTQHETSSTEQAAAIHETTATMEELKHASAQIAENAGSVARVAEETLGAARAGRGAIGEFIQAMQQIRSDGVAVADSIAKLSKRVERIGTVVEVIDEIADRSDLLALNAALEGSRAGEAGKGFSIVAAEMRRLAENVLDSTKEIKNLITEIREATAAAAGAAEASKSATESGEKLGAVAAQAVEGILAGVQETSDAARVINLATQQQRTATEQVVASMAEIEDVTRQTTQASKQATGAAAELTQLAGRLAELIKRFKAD

B1: FrzCD^N-ter (domain or fragment, M. xanthus, UniProt P43500 2-135, looked up)
chain: SLDTPNEKPAGKARARKAPASKAGATNAASTSSSTKAITDTLLTVLSGNLQARVPKELVGESGVELAHLLNQVLDQFAASEHRKHVAAQEIDQALDALIGLVREGDLSRWNTTTEDPQLGPLLEGFGKVIETLR
On to B1, for which the binding result in the series “cross-linking” and with AglZ^Rec was “binds” throughout.

B2: FrzCD^C-ter (domain or fragment, M. xanthus, UniProt P43500 132-417, looked up)
chain: ETLRTFVREINEAALRLSSSANQVLAASTQHETSSTEQAAAIHETTATMEELKHASAQIAENAGSVARVAEETLGAARAGRGAIGEFIQAMQQIRSDGVAVADSIAKLSKRVERIGTVVEVIDEIADRSDLLALNAALEGSRAGEAGKGFSIVAAEMRRLAENVLDSTKEIKNLITEIREATAAAAGAAEASKSATESGEKLGAVAAQAVEGILAGVQETSDAARVINLATQQQRTATEQVVASMAEIEDVTRQTTQASKQATGAAAELTQLAGRLAELIKRFKAD
Consider B2, for which the binding result in “cross-linking” is listed as “binds”.
As to B3, the binding result in series [1] was “binds”.

(Values after paper PMC4098657 (Molecular microbiology, 2009).)
